# Laboratory results: paper PMC11578449 (PLOS Pathogens, 2024)
# B1: Ty-BatCoV-HKU4 spike receptor binding domain (residues E372-Y611) (domain or fragment)
# chain: EASATGTFIEQPNATECDFSPMLTGVAPQVYNFKRLVFSNCNYNLTKLLSLFAVDEFSCNGISPDSIARGCYSTLTVDYFAYPLSMKSYIRPGSAGNIPLYNYKQSFANPTCRVMASVLANVTITKPHAYGYISKCSRLTGANQDVETPLYINPGEYSICRDFSPGGFSEDGQVFKRTLTQFEGGGLLIGVGTRVPMTDNLQMSFIISVQYGTGTDSVCPMLDLGDSLTITNRLGKCVDY
# Tests used:
# [1] = target: human dipeptidyl peptidase 4 ectodomain (hDPP4, residues 39-766) (human) (UniProt P27487); assay: SPR; BIAcore T200, 25 °C; […]; 1:1 Langmuir binding model
# [2] = target: T1, human dipeptidyl peptidase 4 ectodomain (hDPP4, residues 39-766) (human, UniProt P27487 39-766); assay: as above; settings: both partners purified
# T1 construct: also called human DPP4
# T1 sequence (P27487 39-766): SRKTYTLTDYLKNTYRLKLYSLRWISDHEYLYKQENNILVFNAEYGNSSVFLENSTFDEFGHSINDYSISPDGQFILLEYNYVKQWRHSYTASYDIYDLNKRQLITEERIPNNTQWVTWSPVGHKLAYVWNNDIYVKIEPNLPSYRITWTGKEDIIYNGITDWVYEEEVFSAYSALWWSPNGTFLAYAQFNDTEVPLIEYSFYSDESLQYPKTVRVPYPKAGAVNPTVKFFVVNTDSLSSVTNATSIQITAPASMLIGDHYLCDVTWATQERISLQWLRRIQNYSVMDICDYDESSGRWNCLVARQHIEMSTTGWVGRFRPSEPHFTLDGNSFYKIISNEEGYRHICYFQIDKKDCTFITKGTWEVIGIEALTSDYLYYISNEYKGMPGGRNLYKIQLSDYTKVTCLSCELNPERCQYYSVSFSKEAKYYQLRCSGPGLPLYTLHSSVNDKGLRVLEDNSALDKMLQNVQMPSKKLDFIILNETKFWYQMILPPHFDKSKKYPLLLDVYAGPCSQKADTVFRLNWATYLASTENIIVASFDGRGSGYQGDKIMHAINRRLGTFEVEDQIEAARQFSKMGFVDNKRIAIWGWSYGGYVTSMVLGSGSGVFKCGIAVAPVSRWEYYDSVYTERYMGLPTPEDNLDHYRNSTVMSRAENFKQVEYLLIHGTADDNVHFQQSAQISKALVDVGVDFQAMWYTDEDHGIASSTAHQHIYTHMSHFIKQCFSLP
# human dipeptidyl peptidase 4 ectodomain (hDPP4, residues 39-766) (human), sequence (P27487 39-766): as above
Molecule,koff [1],kon [1],koff [2],kon [2]
MjHKU4r-CoV-1 spike receptor binding domain (residues 375-614) (domain or fragment),0.00368 s⁻¹,17000 M⁻¹ s⁻¹,,
B1,,,0.00684 s⁻¹,1070 M⁻¹ s⁻¹
